This passage reports stoichiometry N results from doi:10.1101/2020.09.30.318261.

This assay addresses SARS-CoV prefusion stabilised spike ectodomain trimer (SARS-CoV) (UniProt P59594). The assay is described as follows: cryo-EM structure.

What is called stoichiometry N is the number of molecules, sites or subunits per partner or assembly. Take “SARS-CoV prefusion stabilised spike ectodomain trimer (from UniProt P59594 14-1160) (domain or fragment)”: the stoichiometry N was 3.
